The test system of one series is 8C2 mAb. Description: Competitive ELISA of 8C2 with topotecan and SN38 (BSA-topotecan coated). It is filed as binding, murine. The settings on record: 8C2 held constant at 10 nM; read-out: IC50 in competitive ELISA vs intact 8C2. The method, then: A competitive ELISA was employed to determine the affinity of intact 8C2 mAb for SN38 and topotecan. A BSA-topotecan conjugate was synthesized and immobilized as previously described (Shah et al., Int J Pharm. 2014; 465(1-2):228-238. doi:10.1016/j.ijpharm.2014.01.038) 8C2 concentration was held constant at 10 nM with increasing concentrations of topotecan or SN38. 8C2 drug samples were incubated for 2 hours at room temperature with agitation. Following incubation, wells were washed three times with 250 μL of PBS-T and three times with dH2O. Wells were then incubated with a 1:500 dilution anti-mouse AP conjugate secondary in PBS-T with 3% BSA for 1 h. After washing, 250 μL of 4 mg/ml PNPP in diethanolamine buffer pH 9.8 with absorbance being read at 405 nm. The change in absorbance over time data was fit to a four-parameter function in GraphPad Prism 7.
For orientation: ELISA stands for enzyme-linked immunosorbent assay.

The test system of the next series is LS174T cells. As to the kind of experiment: Competitive cell cytotoxicity assay with LS174T cells. The series is classed as cell-based. On the procedure: Log-phase MOLM-14, Ramos (RA 1), HT-29, LS174T, or NCI-N87 cells were seeded in 96-well microtiter plates at a density of 20,000 cells/well, 20,000 cells/well, 5,000 cells/well, 5,000 cells/well, and 10,000 cells/well, respectively, in 100 μL of culture medium. HT-29, LS174T, and NCI-N87 cells were allowed to adhere for 24 h before cell culture media was aspirated and replaced with 100 μL of fresh media containing a range of treatment for, 48 (LS174T), 96 (NCI-N87), or 120 (HT-29) h. MOLM-14 and Ramos cells were re-suspended with treatment solutions, where 100 μL of cell-treatment suspension was aliquoted into wells of a 96-well plate for 24 h. Treatment solutions consisted of calicheamicin, MMAE, topotecan, or SN38 with or without immunized animal plasma, purified anti-drug antibody, or antibody-drug conjugate (ADC) with or without plasma or anti-drug antibody. For MOLM-14 and Ramos cells, 25 μL of MTT solution (5 mg/mL in pH 7.4 1× PBS) was added directly to wells following treatment incubation. For adherent cells, treatment media was aspirated from wells and cells were washed three times with 100 μL of fresh media. Following the final wash, 100 μL of complete media and 25 μL of MTT solution were added to each well. Cells were incubated for 4 h in order to allow cells to reduce MTT to formazan dye. […] Formazan dye was measured at 570 nm and normalized by cell debris at 690 nm.

The subject of a further series is Trastuzumab deruxtecan. Description: Indirect ELISA of purified sdAb on trastuzumab deruxtecan. The series is classed as binding. An excerpt: FIG. 16. SDS-PAGE and Indirect ELISA.
FIG. 18. SDS-PAGE and Indirect ELISA.

The nature of series [1]: SPR dissociation screening on DM1-Biotin chip. The series is classed as binding. The settings on record: 20 min dissociation phase. On the procedure:
Preliminary screening of DM1/4 binders were performed using a neutravidin SPR chip with DM1-Biotin on the left channel. Phagemid purified sdAbs were flowed over the SPR chip for 2 minutes at a flow rate of 25 ul/min. After binding, sdAb was dissociated for 20 minutes. Observed sensorgrams were fit to an individual dissociation rate constant for each construct. Equilibrium and kinetic binding of 3A2 was assessed using a CM5 SPR chip with TDM1 immobilized on the left channel. […] Rate constants for 3A2-TDM1 association and dissociation were obtained through fitting of the observed sensorgrams for the 1.25, 2.5, 5, 7.5 and 10 nM injections to a 1:1 Langmuir binding model.

“Also recorded” adds a separate entry of the source.

Broadly, the IC50 is the point on the concentration scale where inhibition reaches its midpoint. For `CC[C@@]1(O)C(=O)OCc2c1cc1n(c2=O)Cc2cc3c(CN(C)C)c(O)ccc3nc2-1` [topotecan, reference compound], the 50% inhibitory concentration (IC50) in the series on 8C2 mAb came to 9.3 nM. In addition, in the series on LS174T cells (absence of 8C2 or 8C2 scFv), the “topotecan concentration at which significant cell death was observed” value was found to be 2.5 nM.

B1: TF7 (protein)
chain: QVQLQESGGGLAQPGGSLRVSCATSGFTFSSNYYISWVRQAPGRGLEWVSAINTGDGSTYYAHSVKGRFTISRDNAKNTLYLQMNSLKPEDTALYYCARSSLEGRIEKPYDYWGQGTQVTVSS
modifications: TF7 clone
For the molecule B1, the “binding to trastuzumab deruxtecan” value in the series with Trastuzumab deruxtecan was “concentration-dependent binding”.

B2: TA2 (protein)
VHH: QVQLQESGGGLVQPGGSLRVSCAASGFTFSSYYMSWVRQAPGKGLEWVSAINTGTGSTYYADSVKGRFTISSDNAKNTVYLQMSSLKPEDTALYYCARSSLEGRVEKPYDYWGQGTQVTVSS
modifications: TA2 clone
Turning to B2, in the series on Trastuzumab deruxtecan, the “binding to trastuzumab deruxtecan” value is listed as “concentration-dependent binding”.

B3: 8C2 scFv (protein)
scFv: EVQLQQSGAELVKPGASVKLSCTASGFNIKDTYIHWVKQRPEQGLEWIGMIDLANDNTKYDPKFQGKATIITDTSSNKAYLQVSSLTSEDTAVYYCATWGAIITLGGWGQGTLVTVSAAKGGGGSGGGGSGGGGSGGGGSDIQMTQSPASLSASVGETVTITCRASGNIHNSLAWYQQIKGRSPQLLVYNAKTLADGVPSRFSGSGSGTQYSLKINSLHPEDFGSYYCQHFWSTPFTFGSGTKLEIKRENLYFQG
modifications: 8C2 scFv
For the molecule B3, the “effect on topotecan cytotoxicity” value in the series on LS174T cells (topotecan with 8C2 mAb or scFv) was “right-shifted; also recorded: increased the viability”.

B4: DT3H3 (protein)
VHH: EVQLVESGGGLVQPGGSLRLSCAASGRTFSHDHMGWFRQAPGKEREFVAAISWTSSTYYGDSVKGRFTISRSNAKNTVYLQMNSLKPEDTAIYYCSWGVGYWGQGTQVTVSS
Regarding B4, the dissociation kinetics entry in series [1] was “longest dissociation rates; also recorded: longer dissociation rates”.

B5: DT3B3 (protein)
VHH: EVQLVESGGGLVQAGGSLRLSCALSGGTLRSYTMGWIRQAPGKEREFVAGNRWSGGRTYYADSVKGRFTISGDNAENTVYLQMNSLKPEDTAVYYCTADVTEYGEDSSAYWGRGTQVTVSS
modifications: DT3B3
Regarding B5, in series [1], the dissociation kinetics result is on record as “longest dissociation rates; also recorded: longer dissociation rates”.

The values above are taken from US12624123B2, “Compositions and methods for reducing off-target toxicity of antibody drug conjugates” (The Research Foundation for The State University of New York, priority 2019, dated 2026).
